Assay [1] addresses T1, PD-L1 of the PD-1 [Biotinylated]: PD-L1 Inhibitor Screening ELISA Assay Pair (Acro Biosystems EP-101) (UniProt Q9NZQ7 19-238).
T1 construct: PD-L1 of a bought ELISA assay pair; The construct is described only by the kit's manufacturer; source: bought: Acro Biosystems (EP-101 assay pair)
Put plainly: ELISA; competition: PD-1 [Biotinylated]: PD-L1 Inhibitor Screening ELISA Assay Pair (Acro Biosystems EP-101) with recombinant VSTM2A as inhibitor. To be noted: both partners purified. (In general: An ELISA detects its analyte on a solid surface through an enzyme-linked reagent.)

The target of assay [2] is T2, Recombinant human PD-L1 Fc chimera protein (R&D Systems 156-B7) (human, UniProt Q9NZQ7 19-238).
T2 construct: PD-L1, human, recombinant Fc chimera; also called recombinant human PD-L1 chimera protein; source: bought: R&D Systems (156-B7)
The experiment in a line: ELISA; titration ELISA; 5 μg/mL PD-L1 Fc chimera immobilised on the plate at 4 °C for 12 h, blocked with 5% BSA; VSTM2A serial dilution (start 100 μg/mL) for 2 h at room temperature; fixed with DTSSP; pNPP, OD405; one-site specific binding fit; apparent KD. To be noted: both partners purified.

T1 sequence (Q9NZQ7 19-238): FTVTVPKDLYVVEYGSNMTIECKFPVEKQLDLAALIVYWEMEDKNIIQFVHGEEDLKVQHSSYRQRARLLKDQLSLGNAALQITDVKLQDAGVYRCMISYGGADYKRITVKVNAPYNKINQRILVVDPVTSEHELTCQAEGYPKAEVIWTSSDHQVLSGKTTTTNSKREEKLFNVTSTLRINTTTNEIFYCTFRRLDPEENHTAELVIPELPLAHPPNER
T2 sequence (Q9NZQ7 19-238, change not shown): as the sequence (Q9NZQ7 19-238) above

B1: Recombinant human VSTM2A His-tag protein (R&D Systems 10037-VT-050, carrier-free) (ligand, UniProt Q8TAG5 25-236, looked up)
chain: SQAKFTEFPRNVTATEGQNVEMSCAFQSGSASVYLEIQWWFLRGPEDLDPGAEGAGAQVELLPDRDPDSDGTKISTVKVQGNDISHKLQISKVRKKDEGLYECRVTDANYGELQEHKAQAYLKVNANSHARRMQAFEASPMWLQDMKPRKNVSAAIPSSIHGSANQRTHSTSSPQVVAKIPKQSPQSGARIATSHGLSVLLLVCGFVKGALL
notes: VSTM2A, human, recombinant; also called recombinant VSTM2A; VSTM2A recombinant protein; source: bought: R&D Systems (10037-VT-050, carrier-free version)
By IC50 is commonly meant the midpoint of a concentration-inhibition curve. In the case of B1, in assay [1], the IC50 is 4.51 nM. Further, in assay [2], the Kd lay in the range of 0.7 to 2.5 nM.
